Experiments:
[1] = molecular target: epas1_mouse Epas1 (UniProt P97481)
[2] = molecular target: Hif1a, Q61221-1
[3] = molecular target: arnt_mouse Arnt (UniProt P53762)
[4] = molecular target: arnt_mouse Arnt (UniProt P53762); remark: listed apart in the source

Hif1a, Q61221-1, sequence (Q61221 whole entry): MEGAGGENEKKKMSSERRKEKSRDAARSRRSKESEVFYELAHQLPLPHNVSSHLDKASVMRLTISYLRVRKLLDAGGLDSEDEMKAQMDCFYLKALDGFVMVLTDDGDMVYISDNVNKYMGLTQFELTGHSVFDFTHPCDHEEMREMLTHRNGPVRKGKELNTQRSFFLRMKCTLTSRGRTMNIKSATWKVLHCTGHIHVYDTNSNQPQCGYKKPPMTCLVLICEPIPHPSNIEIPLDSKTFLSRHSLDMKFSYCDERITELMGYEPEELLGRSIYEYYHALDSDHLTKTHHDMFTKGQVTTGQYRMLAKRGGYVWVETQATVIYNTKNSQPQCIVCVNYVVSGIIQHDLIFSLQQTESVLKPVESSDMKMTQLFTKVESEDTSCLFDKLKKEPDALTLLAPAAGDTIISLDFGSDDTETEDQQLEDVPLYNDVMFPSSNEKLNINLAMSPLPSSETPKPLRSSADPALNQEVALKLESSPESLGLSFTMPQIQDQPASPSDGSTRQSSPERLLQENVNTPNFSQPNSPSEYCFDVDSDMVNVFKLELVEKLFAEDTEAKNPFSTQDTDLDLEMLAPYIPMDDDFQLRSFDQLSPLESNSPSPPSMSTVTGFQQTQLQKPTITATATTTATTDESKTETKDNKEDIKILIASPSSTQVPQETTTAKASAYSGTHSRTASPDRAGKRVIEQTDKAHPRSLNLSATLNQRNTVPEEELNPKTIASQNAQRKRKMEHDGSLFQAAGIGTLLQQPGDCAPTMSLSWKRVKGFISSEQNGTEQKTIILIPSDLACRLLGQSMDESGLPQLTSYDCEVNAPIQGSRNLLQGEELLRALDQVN
Hypoxia-inducible factor 1-alpha (Mus musculus), Q61221-1 R170A;V191D, sequence (Q61221 whole entry R170A/V191D): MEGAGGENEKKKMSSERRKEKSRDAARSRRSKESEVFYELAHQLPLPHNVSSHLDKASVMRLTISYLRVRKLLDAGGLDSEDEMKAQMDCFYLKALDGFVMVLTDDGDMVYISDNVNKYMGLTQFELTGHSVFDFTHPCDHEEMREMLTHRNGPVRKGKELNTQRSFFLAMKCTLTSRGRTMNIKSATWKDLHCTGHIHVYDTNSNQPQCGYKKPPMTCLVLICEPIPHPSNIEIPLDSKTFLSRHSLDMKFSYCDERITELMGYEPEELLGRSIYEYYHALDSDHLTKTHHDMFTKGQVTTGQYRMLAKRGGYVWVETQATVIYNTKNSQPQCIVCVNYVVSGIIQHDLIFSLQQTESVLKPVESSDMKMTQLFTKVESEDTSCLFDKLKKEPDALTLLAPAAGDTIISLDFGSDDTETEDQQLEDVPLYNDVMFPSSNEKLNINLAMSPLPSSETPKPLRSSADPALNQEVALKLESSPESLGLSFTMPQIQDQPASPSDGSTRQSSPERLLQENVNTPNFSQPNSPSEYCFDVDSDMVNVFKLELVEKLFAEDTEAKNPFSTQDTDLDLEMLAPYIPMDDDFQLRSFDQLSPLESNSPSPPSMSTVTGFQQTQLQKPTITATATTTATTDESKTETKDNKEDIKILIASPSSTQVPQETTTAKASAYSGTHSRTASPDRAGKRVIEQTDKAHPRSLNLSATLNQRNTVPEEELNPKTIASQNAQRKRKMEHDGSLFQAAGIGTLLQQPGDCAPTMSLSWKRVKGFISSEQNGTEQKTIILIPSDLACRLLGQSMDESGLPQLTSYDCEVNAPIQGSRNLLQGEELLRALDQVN
Hypoxia-inducible factor 1-alpha (Mus musculus), Q61221-1 R170A, sequence (Q61221 whole entry R170A): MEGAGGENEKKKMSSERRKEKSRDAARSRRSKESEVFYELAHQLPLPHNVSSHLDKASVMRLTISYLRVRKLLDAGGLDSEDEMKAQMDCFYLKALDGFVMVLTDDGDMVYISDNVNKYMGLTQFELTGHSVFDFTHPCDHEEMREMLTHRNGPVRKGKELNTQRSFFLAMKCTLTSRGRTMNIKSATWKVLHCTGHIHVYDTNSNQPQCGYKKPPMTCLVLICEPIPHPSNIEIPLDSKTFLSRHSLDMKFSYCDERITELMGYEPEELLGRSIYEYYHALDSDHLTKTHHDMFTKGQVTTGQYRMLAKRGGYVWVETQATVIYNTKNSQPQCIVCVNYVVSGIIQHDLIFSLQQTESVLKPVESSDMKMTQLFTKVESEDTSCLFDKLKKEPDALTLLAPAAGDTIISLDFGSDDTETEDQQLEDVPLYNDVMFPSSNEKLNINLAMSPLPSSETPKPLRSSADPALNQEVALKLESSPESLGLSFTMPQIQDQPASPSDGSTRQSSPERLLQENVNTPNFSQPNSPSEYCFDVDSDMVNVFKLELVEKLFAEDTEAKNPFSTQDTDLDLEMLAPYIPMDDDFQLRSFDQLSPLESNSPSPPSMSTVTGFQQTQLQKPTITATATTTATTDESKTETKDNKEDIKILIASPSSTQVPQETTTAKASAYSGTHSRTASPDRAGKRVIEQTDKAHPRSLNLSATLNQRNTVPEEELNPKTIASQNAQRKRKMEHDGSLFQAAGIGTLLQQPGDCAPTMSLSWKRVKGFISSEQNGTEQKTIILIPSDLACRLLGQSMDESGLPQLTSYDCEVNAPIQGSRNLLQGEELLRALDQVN
Hypoxia-inducible factor 1-alpha (Mus musculus), Q61221-1 V191D, sequence (Q61221 whole entry V191D): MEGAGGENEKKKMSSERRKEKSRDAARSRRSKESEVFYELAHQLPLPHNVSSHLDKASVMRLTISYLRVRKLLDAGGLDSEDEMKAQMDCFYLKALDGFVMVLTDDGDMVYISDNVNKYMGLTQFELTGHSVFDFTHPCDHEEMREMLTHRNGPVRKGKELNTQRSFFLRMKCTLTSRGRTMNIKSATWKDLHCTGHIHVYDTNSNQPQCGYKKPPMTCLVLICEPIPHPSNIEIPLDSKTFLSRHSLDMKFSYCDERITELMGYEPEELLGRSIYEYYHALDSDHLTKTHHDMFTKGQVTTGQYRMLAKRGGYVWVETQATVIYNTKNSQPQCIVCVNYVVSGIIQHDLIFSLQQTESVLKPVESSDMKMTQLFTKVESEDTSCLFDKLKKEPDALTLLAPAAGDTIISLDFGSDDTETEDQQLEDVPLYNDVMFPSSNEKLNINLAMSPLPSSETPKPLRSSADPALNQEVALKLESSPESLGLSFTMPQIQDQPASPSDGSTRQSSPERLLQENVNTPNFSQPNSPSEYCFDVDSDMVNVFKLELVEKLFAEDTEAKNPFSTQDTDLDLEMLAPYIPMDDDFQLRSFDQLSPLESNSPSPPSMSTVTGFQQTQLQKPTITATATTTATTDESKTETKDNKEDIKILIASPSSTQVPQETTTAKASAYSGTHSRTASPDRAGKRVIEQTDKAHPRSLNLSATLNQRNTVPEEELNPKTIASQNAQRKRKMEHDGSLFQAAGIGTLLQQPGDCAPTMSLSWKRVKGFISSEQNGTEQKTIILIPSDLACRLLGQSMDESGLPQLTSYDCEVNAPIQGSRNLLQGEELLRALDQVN

With “Aryl hydrocarbon receptor nuclear translocator (Mus musculus), P53762 A171D” the “effect of a mutation on the interaction” value [1] was “disrupting interaction strength” and the “effect of a mutation on the interaction” value [2] was “decreasing interaction strength”.
“Aryl hydrocarbon receptor nuclear translocator (Mus musculus), P53762 R266A” was tested, and the “effect of a mutation on the interaction” value [1] was “decreasing interaction strength”.
“Endothelial PAS domain-containing protein 1 (Mus musculus), P97481 V192D” was tested, and the “effect of a mutation on the interaction” value [3] was “decreasing interaction strength”.
“Hypoxia-inducible factor 1-alpha (Mus musculus), Q61221-1 V191D” was tested, and the “effect of a mutation on the interaction” value [4] was “decreasing interaction strength”.
“Hypoxia-inducible factor 1-alpha (Mus musculus), Q61221-1 R170A” was tested, and the “effect of a mutation on the interaction” value [4] was “decreasing interaction strength”.
With “Aryl hydrocarbon receptor nuclear translocator (Mus musculus), P53762 L167E;A171D” the “effect of a mutation on the interaction” value [1] was “disrupting interaction strength” and the “effect of a mutation on the interaction” value [2] was “decreasing interaction strength”.
For “Endothelial PAS domain-containing protein 1 (Mus musculus), P97481 R171A”, the “effect of a mutation on the interaction” value [3] was “decreasing interaction strength”.
“Endothelial PAS domain-containing protein 1 (Mus musculus), P97481 H194A” was tested, and the “effect of a mutation on the interaction” value [3] was “decreasing interaction strength”.
“Aryl hydrocarbon receptor nuclear translocator (Mus musculus), P53762 I264D;V305D” was tested, and the “effect of a mutation on the interaction” value [1] was “decreasing interaction strength” and the “effect of a mutation on the interaction” value [2] was “decreasing interaction strength”.
With “Aryl hydrocarbon receptor nuclear translocator (Mus musculus), P53762 L167E” the “effect of a mutation on the interaction” value [1] was “disrupting interaction strength” and the “effect of a mutation on the interaction” value [2] was “decreasing interaction strength”.
With “Aryl hydrocarbon receptor nuclear translocator (Mus musculus), P53762 L112E;L132E” the “effect of a mutation on the interaction” value [1] was “disrupting interaction strength” and the “effect of a mutation on the interaction” value [2] was “disrupting interaction strength”.
In the case of “Aryl hydrocarbon receptor nuclear translocator (Mus musculus), P53762 I168D”, the “effect of a mutation on the interaction” value [1] is reported as “disrupting interaction strength” and the “effect of a mutation on the interaction” value [2] is reported as “disrupting interaction strength”.
For “Hypoxia-inducible factor 1-alpha (Mus musculus), Q61221-1 R170A;V191D”, the “effect of a mutation on the interaction” value [4] was “decreasing interaction strength”.
With “Aryl hydrocarbon receptor nuclear translocator (Mus musculus), P53762 R366A” the “effect of a mutation on the interaction” value [1] was “decreasing interaction strength” and the “effect of a mutation on the interaction” value [2] was “decreasing interaction strength”.
“Aryl hydrocarbon receptor nuclear translocator (Mus musculus), P53762 L112E” was tested, and the “effect of a mutation on the interaction” value [1] was “disrupting interaction strength” and the “effect of a mutation on the interaction” value [2] was “disrupting interaction strength”.
For “Aryl hydrocarbon receptor nuclear translocator (Mus musculus), P53762 V136D”, the “effect of a mutation on the interaction” value [1] was “disrupting interaction strength” and the “effect of a mutation on the interaction” value [2] was “disrupting interaction strength”.
With “Aryl hydrocarbon receptor nuclear translocator (Mus musculus), P53762 L132E” the “effect of a mutation on the interaction” value [1] was “disrupting interaction strength” and the “effect of a mutation on the interaction” value [2] was “disrupting interaction strength”.
For “Endothelial PAS domain-containing protein 1 (Mus musculus), P97481 F169D”, the “effect of a mutation on the interaction” value [3] was “decreasing interaction strength”.
In the case of “Endothelial PAS domain-containing protein 1 (Mus musculus), P97481 R171A;V192D”, the “effect of a mutation on the interaction” value [3] is reported as “disrupting interaction strength”.
In the case of “Aryl hydrocarbon receptor nuclear translocator (Mus musculus), P53762 I264D”, the “effect of a mutation on the interaction” value [1] is reported as “disrupting interaction strength” and the “effect of a mutation on the interaction” value [2] is reported as “decreasing interaction strength”.
In the case of “Aryl hydrocarbon receptor nuclear translocator (Mus musculus), P53762 V305D”, the “effect of a mutation on the interaction” value [1] is reported as “decreasing interaction strength” and the “effect of a mutation on the interaction” value [2] is reported as “decreasing interaction strength”.
For “Aryl hydrocarbon receptor nuclear translocator (Mus musculus), P53762 R366A;N448A”, the “effect of a mutation on the interaction” value [1] was “disrupting interaction strength” and the “effect of a mutation on the interaction” value [2] was “disrupting interaction strength”.
